Test results taken from patent US20250320305A1 (Hoffmann-La Roche, published 2025).

Legend:
[1] = molecular target: T1, human CD40 expressed on cells (human, UniProt P25942 21-277); assay: flow cytometry, Raji cells;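 further: cell binding of antibodies to Raji cells detected by flow cytometry using an Alexa488-labelled anti-human IgG secondary antibody, primary incubation 1 h at 4 °C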
T1 construct: also called huCD40; Raji cells
Procedure: CD40 positive cells (Raji cells) were detatched from the culture bottle using Trypsin and were counted using a Casy cell counter. After pelleting at 4° C., the cells were resuspended in FACS Buffer (2.5% FCS in PBS), adjusted to 2.0E+06 cells/mL, and dispensed to 96-well PP V-bottom-plates (25 μL/well=5.0E+04Zellen/well).
The CD40 specific antibodies were adjusted to 20 μg/mL in FACS buffer, resulting in a final concentration of 10 μg/mL. 20 μl were added to 25 μl cell suspension and incubated for 1 h at 4° C. The cells were then washed twice in FACS buffer. After washing, the cells were resuspended in 50 μL FACS-buffer containing secondary antibody (<huIgG>-Alexa488, c=10 μg/mL) and incubated 1 h bei 4° C. The cells were then washed twice in FACS buffer and resuspended in 70 μl/well FACS buffer for measurement using a FACS Canto (BD, Pharmingen).

[2] = molecular target: T2, human CD40 extracellular domain with C-terminal His-AviTag (human, UniProt P25942 21-193); assay: SPR, antibody captured, CD40 ECD analyte;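 further: biacore SPR at 25 °C in PBS-T pH 7.4, CD40 ECD analyte from 300 nM in 1:3 series, 300 s association, up to 1200 s dissociation, double-referenced, Langmuir 1:1 fit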
T2 construct: not shown: C-terminal His-AviTag

[3] = molecular target: T3, biotinylated recombinant human FAP (human, UniProt Q12884 26-760, biotinylated); assay: SPR (Biacore)
T3 construct: also called biotinylated human FAP

| Binder | EC50 [1] [µg/mL] | Kd [2] [nM] | koff [2] [s⁻¹] | kon [2] [M⁻¹ s⁻¹] | Kd [3] [nM] | T ½ [3] [min] | koff [3] [s⁻¹] | kon [3] [M⁻¹ s⁻¹] |
| --- | --- | --- | --- | --- | --- | --- | --- | --- |
| P1AE0818, humanized anti-CD40 antibody VH1c/VL1c, huIgG1_LALA_PG (antibody, V domains shown, huIgG1 with effector silent Fc (P329G, L234A, L235A)) VH: QVQLVQSGAEVKKPGASVKVSCKASGYSFTGYYIHWVRQAPGQSLEWMGRVIPNAGGTSYNQKFKGRVTLTVDKSISTAYMELSRLRSDDTAVYYCAREGIYWWGHGTTVTVSS VL: DVVVTQTPLSLSVTPGQPASISCRSSQSLVHSNGNTFLHWYLQKPGQSPQLLIYTVSNRFSGVPDRFSGSGSGTDFTLKISRVEAEDVGVYFCSQTTHVPWTFGGGTKVEIK | 0.14 | 3.2 | 0.00847 | 2.63e+06 |  |  |  |  |
| P1AE1007, humanized anti-CD40 antibody VH1d/VL1b, huIgG1_LALA_PG (antibody, V domains shown, huIgG1 with effector silent Fc (P329G, L234A, L235A)) VH: QVQLVQSGAEVKKPGASVKVSCKASGYSFTGYYIHWVRQAPGQSLEWMGRVIPNAGGTSYNQKFKGRVTLSVDKSISTAYMELSRLRSDDTAVYYCAREGIYWWGQGTTVTVSS VL: DIVVTQTPLSLSVTPGQPASISCRSSQSLVHSNGNTFLHWYLQKPGQSPQLLIYTVSNRFSGVPDRFSGSGSGTDFTLKISRVEAEDVGVYFCSQTTHVPWTFGGGTKVEIK | 0.12 | 2.7 | 0.00662 | 2.5e+06 |  |  |  |  |
| P1AE0998, humanized anti-CD40 antibody VH1c/VL1d, huIgG1_LALA_PG (antibody, V domains shown, huIgG1 with effector silent Fc (P329G, L234A, L235A)) VH: QVQLVQSGAEVKKPGASVKVSCKASGYSFTGYYIHWVRQAPGQSLEWMGRVIPNAGGTSYNQKFKGRVTLTVDKSISTAYMELSRLRSDDTAVYYCAREGIYWWGHGTTVTVSS VL: DVVVTQTPLSLSVTPGQPASISCRSSQSLVHSNGNTFLHWYLQKPGQSPQLLIYTVSNRFSGVPDRFSGSGSGTDFTLKISRVEAEDVGVYFCSQTTHVPWTFGGGTKLEIK | 0.12 | 3.3 | 0.00896 | 2.7e+06 |  |  |  |  |
| P1AE1005, humanized anti-CD40 antibody VH1b/VL1d, huIgG1_LALA_PG (antibody, V domains shown, huIgG1 with effector silent Fc (P329G, L234A, L235A)) VH: QVQLVQSGAEVKKPGASVKVSCKASGYSFTGYYIHWVRQAPGKSLEWMGRVIPNAGGTSYNQKFKGRVTLTVDKSISTAYMELSRLRSDDTAVYYCAREGIYWWGQGTTVTVSS VL: DVVVTQTPLSLSVTPGQPASISCRSSQSLVHSNGNTFLHWYLQKPGQSPQLLIYTVSNRFSGVPDRFSGSGSGTDFTLKISRVEAEDVGVYFCSQTTHVPWTFGGGTKLEIK | 0.11 | 3.2 | 0.00816 | 2.58e+06 |  |  |  |  |
| P1AE0996, humanized anti-CD40 antibody VH1a/VL1d, huIgG1_LALA_PG (antibody, V domains shown, huIgG1 with effector silent Fc (P329G, L234A, L235A)) VH: QVQLVQSGAEVKKPGASVKVSCKASGYSFTGYYIHWVRQAPGQSLEWMGRVIPNAGGTSYNQKFKGRVTLTVDKSISTAYMELSRLRSDDTAVYYCAREGIYWWGQGTTVTVSS VL: DVVVTQTPLSLSVTPGQPASISCRSSQSLVHSNGNTFLHWYLQKPGQSPQLLIYTVSNRFSGVPDRFSGSGSGTDFTLKISRVEAEDVGVYFCSQTTHVPWTFGGGTKLEIK | 0.12 | 3.5 | 0.00908 | 2.59e+06 |  |  |  |  |
| P1AE1006, humanized anti-CD40 antibody VH1c/VL1b, huIgG1_LALA_PG (antibody, V domains shown, huIgG1 with effector silent Fc (P329G, L234A, L235A)) VH: QVQLVQSGAEVKKPGASVKVSCKASGYSFTGYYIHWVRQAPGQSLEWMGRVIPNAGGTSYNQKFKGRVTLTVDKSISTAYMELSRLRSDDTAVYYCAREGIYWWGHGTTVTVSS VL: DIVVTQTPLSLSVTPGQPASISCRSSQSLVHSNGNTFLHWYLQKPGQSPQLLIYTVSNRFSGVPDRFSGSGSGTDFTLKISRVEAEDVGVYFCSQTTHVPWTFGGGTKVEIK | 0.14 | 2.6 | 0.00651 | 2.53e+06 |  |  |  |  |
| P1AE1003, humanized anti-CD40 antibody VH1b/VL1b, huIgG1_LALA_PG (antibody, V domains shown, huIgG1 with effector silent Fc (P329G, L234A, L235A)) VH: QVQLVQSGAEVKKPGASVKVSCKASGYSFTGYYIHWVRQAPGKSLEWMGRVIPNAGGTSYNQKFKGRVTLTVDKSISTAYMELSRLRSDDTAVYYCAREGIYWWGQGTTVTVSS VL: DIVVTQTPLSLSVTPGQPASISCRSSQSLVHSNGNTFLHWYLQKPGQSPQLLIYTVSNRFSGVPDRFSGSGSGTDFTLKISRVEAEDVGVYFCSQTTHVPWTFGGGTKVEIK | 0.13 | 2.5 | 0.00606 | 2.46e+06 |  |  |  |  |
| P1AE1001, humanized anti-CD40 antibody VH1a/VL1b, huIgG1_LALA_PG (antibody, V domains shown, huIgG1 with effector silent Fc (P329G, L234A, L235A)) VH: QVQLVQSGAEVKKPGASVKVSCKASGYSFTGYYIHWVRQAPGQSLEWMGRVIPNAGGTSYNQKFKGRVTLTVDKSISTAYMELSRLRSDDTAVYYCAREGIYWWGQGTTVTVSS VL: DIVVTQTPLSLSVTPGQPASISCRSSQSLVHSNGNTFLHWYLQKPGQSPQLLIYTVSNRFSGVPDRFSGSGSGTDFTLKISRVEAEDVGVYFCSQTTHVPWTFGGGTKVEIK | 0.08 | 2.7 | 0.00681 | 2.56e+06 |  |  |  |  |
| P1AE0997, humanized anti-CD40 antibody VH1c/VL1a, huIgG1_LALA_PG (antibody, V domains shown, huIgG1 with effector silent Fc (P329G, L234A, L235A)) VH: QVQLVQSGAEVKKPGASVKVSCKASGYSFTGYYIHWVRQAPGQSLEWMGRVIPNAGGTSYNQKFKGRVTLTVDKSISTAYMELSRLRSDDTAVYYCAREGIYWWGHGTTVTVSS VL: DIVMTQTPLSLSVTPGQPASISCRSSQSLVHSNGNTFLHWYLQKPGQSPQLLIYTVSNRFSGVPDRFSGSGSGTDFTLKISRVEAEDVGVYFCSQTTHVPWTFGGGTKVEIK | 0.12 | 2.3 | 0.00603 | 2.59e+06 |  |  |  |  |
| P1AE1000, humanized anti-CD40 antibody VH1d/VL1c, huIgG1_LALA_PG (antibody, V domains shown, huIgG1 with effector silent Fc (P329G, L234A, L235A)) VH: QVQLVQSGAEVKKPGASVKVSCKASGYSFTGYYIHWVRQAPGQSLEWMGRVIPNAGGTSYNQKFKGRVTLSVDKSISTAYMELSRLRSDDTAVYYCAREGIYWWGQGTTVTVSS VL: DVVVTQTPLSLSVTPGQPASISCRSSQSLVHSNGNTFLHWYLQKPGQSPQLLIYTVSNRFSGVPDRFSGSGSGTDFTLKISRVEAEDVGVYFCSQTTHVPWTFGGGTKVEIK | 0.14 | 3.2 | 0.00862 | 2.68e+06 |  |  |  |  |
| P1AE1004, humanized anti-CD40 antibody VH1b/VL1c, huIgG1_LALA_PG (antibody, V domains shown, huIgG1 with effector silent Fc (P329G, L234A, L235A)) VH: QVQLVQSGAEVKKPGASVKVSCKASGYSFTGYYIHWVRQAPGKSLEWMGRVIPNAGGTSYNQKFKGRVTLTVDKSISTAYMELSRLRSDDTAVYYCAREGIYWWGQGTTVTVSS VL: DVVVTQTPLSLSVTPGQPASISCRSSQSLVHSNGNTFLHWYLQKPGQSPQLLIYTVSNRFSGVPDRFSGSGSGTDFTLKISRVEAEDVGVYFCSQTTHVPWTFGGGTKVEIK | 0.14 | 3 | 0.00795 | 2.63e+06 |  |  |  |  |
| P1AE1002, humanized anti-CD40 antibody VH1b/VL1a, huIgG1_LALA_PG (antibody, V domains shown, huIgG1 with effector silent Fc (P329G, L234A, L235A)) VH: QVQLVQSGAEVKKPGASVKVSCKASGYSFTGYYIHWVRQAPGKSLEWMGRVIPNAGGTSYNQKFKGRVTLTVDKSISTAYMELSRLRSDDTAVYYCAREGIYWWGQGTTVTVSS VL: DIVMTQTPLSLSVTPGQPASISCRSSQSLVHSNGNTFLHWYLQKPGQSPQLLIYTVSNRFSGVPDRFSGSGSGTDFTLKISRVEAEDVGVYFCSQTTHVPWTFGGGTKVEIK | 0.13 | 2.2 | 0.00557 | 2.54e+06 |  |  |  |  |
| P1AE0819, humanized anti-CD40 antibody VH1d/VL1d, huIgG1_LALA_PG (antibody, V domains shown, huIgG1 with effector silent Fc (P329G, L234A, L235A)) VH: QVQLVQSGAEVKKPGASVKVSCKASGYSFTGYYIHWVRQAPGQSLEWMGRVIPNAGGTSYNQKFKGRVTLSVDKSISTAYMELSRLRSDDTAVYYCAREGIYWWGQGTTVTVSS VL: DVVVTQTPLSLSVTPGQPASISCRSSQSLVHSNGNTFLHWYLQKPGQSPQLLIYTVSNRFSGVPDRFSGSGSGTDFTLKISRVEAEDVGVYFCSQTTHVPWTFGGGTKLEIK | 0.11 | 3.4 | 0.00877 | 2.59e+06 |  |  |  |  |
| P1AE0999, humanized anti-CD40 antibody VH1d/VL1a, huIgG1_LALA_PG (antibody, V domains shown, huIgG1 with effector silent Fc (P329G, L234A, L235A)) VH: QVQLVQSGAEVKKPGASVKVSCKASGYSFTGYYIHWVRQAPGQSLEWMGRVIPNAGGTSYNQKFKGRVTLSVDKSISTAYMELSRLRSDDTAVYYCAREGIYWWGQGTTVTVSS VL: DIVMTQTPLSLSVTPGQPASISCRSSQSLVHSNGNTFLHWYLQKPGQSPQLLIYTVSNRFSGVPDRFSGSGSGTDFTLKISRVEAEDVGVYFCSQTTHVPWTFGGGTKVEIK | 0.15 | 2.4 | 0.00592 | 2.45e+06 |  |  |  |  |
| P1AE1690_Fab, humanized anti-FAP clone 212 variant VH1G2a/VL1G1a (Fab, V domains shown, Fab) VH: QVQLVQSGAEVKKPGASVKVSCKASGYTLTDYNMDWVRQAPGKSLEWIGDIYPNTGGTIYNQKFKGRVTMTIDKSTSTVYMELSSLRSEDTAVYYCTRFRGIHYAMDYWGQGTTVTVSS VL: EIVLTQSPATLSLSPGERATLSCRASESVDNYGLSFINWFQQKPGQAPRLLIYGTSNRGSGIPARFSGSGSGTDFTLTISSLEPEDFAVYFCQQSNEVPYTFGGGTKVEIK |  |  |  |  | 0.114 | 183 | 6.3e-05 | 551000 |
| P1AE1689_Fab, humanized anti-FAP clone 212 variant VH1G1a/VL1G1a (Fab, V domains shown, Fab) VH: QVQLVQSGAEVKKPGASVKVSCKASGYTLTDYNMDWVRQAPGQGLEWIGDIYPNTGGTIYNQKFKGRVTMTIDTSTSTVYMELSSLRSEDTAVYYCTRFRGIHYAMDYWGQGTTVTVSS VL: EIVLTQSPATLSLSPGERATLSCRASESVDNYGLSFINWFQQKPGQAPRLLIYGTSNRGSGIPARFSGSGSGTDFTLTISSLEPEDFAVYFCQQSNEVPYTFGGGTKVEIK |  |  |  |  | 0.095 | 274 | 4.21e-05 | 443000 |
| P1AE1693_Fab, humanized anti-FAP clone 212 variant VH1G2a/VL1G2a (Fab, V domains shown, Fab) VH: QVQLVQSGAEVKKPGASVKVSCKASGYTLTDYNMDWVRQAPGKSLEWIGDIYPNTGGTIYNQKFKGRVTMTIDKSTSTVYMELSSLRSEDTAVYYCTRFRGIHYAMDYWGQGTTVTVSS VL: EIVLTQSPATLSLSPGERATLSCRASESVDNYGLSFINWFQQKPGQPPRLLIYGTSNRGSGIPARFSGSGSGTDFTLTISSLEPEDFAVYFCQQSNEVPYTFGGGTKVEIK |  |  |  |  | 0.135 | 161 | 7.18e-05 | 530000 |
